From patent US20200362349, “APPLICATION OF APTAMER IN RECOGNITION AND BINDING OF ALKALINE PHOSPHATASE HETERODIMER OR TUMOR DETECTION” (INSTITUTE OF CHEMISTRY, CHINESE ACADEMY OF SCIENCES, published 2020)

B1: BG2 with primer sequences (ssDNA)
DNA: ACGCTCGGATGCCACTACAGTCAAGGAATAGGGGTCGGTGTGGGTGGTTATGATTGGCTTCCTTGTCTCATGGACGTGCTGGTGAC

Target: alkaline phosphatase heterodimer IAP/PALP (ALPI/ALPP) on LoVo cells (Homo sapiens, UniProt P09923;P05187 P09923:20-503,P05187:23-506)
Assay: flow; apparent Kd on LoVo cells
Settings: tags: endogenous, LoVo colon cancer cells, label: fluorescent dye
Protocol: A dish of colon cancer LoVo cells in the logarithmic growth phase was digested with 0.2% EDTA in PBS into a monodisperse cell suspension, and then divided into several aliquots. The aliquots were incubated with a fluorescent molecule-labeled aptamer probe solution for 30 min and washed twice with washing buffer, and then the fluorescence intensity on the cell surface was measured with BD FACSalibur flow cytometer. The average fluorescence intensity on the cell surface was plotted against the concentration of the aptamer, and the equilibrium dissociation constant Kd of the aptamer was calculated according to the following formula: Y=BₘₐₓX (Kd+X).

Sequence of alkaline phosphatase heterodimer IAP/PALP (ALPI/ALPP) on LoVo cells (P09923 20-503, chain 1 of 2): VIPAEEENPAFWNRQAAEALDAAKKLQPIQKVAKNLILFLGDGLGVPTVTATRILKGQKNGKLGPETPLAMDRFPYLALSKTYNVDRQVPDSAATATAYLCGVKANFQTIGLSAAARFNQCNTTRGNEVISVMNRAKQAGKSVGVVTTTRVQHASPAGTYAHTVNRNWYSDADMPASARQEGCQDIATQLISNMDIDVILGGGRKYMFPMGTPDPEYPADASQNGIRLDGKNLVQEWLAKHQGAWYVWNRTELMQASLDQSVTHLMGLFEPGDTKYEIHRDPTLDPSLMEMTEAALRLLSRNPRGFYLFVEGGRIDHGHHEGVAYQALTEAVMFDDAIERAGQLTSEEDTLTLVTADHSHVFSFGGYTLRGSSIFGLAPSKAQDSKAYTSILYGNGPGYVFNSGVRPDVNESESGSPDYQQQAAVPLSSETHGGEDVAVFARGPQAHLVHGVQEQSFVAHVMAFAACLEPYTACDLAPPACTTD
Sequence of alkaline phosphatase heterodimer IAP/PALP (ALPI/ALPP) on LoVo cells (P05187 23-506, chain 2 of 2): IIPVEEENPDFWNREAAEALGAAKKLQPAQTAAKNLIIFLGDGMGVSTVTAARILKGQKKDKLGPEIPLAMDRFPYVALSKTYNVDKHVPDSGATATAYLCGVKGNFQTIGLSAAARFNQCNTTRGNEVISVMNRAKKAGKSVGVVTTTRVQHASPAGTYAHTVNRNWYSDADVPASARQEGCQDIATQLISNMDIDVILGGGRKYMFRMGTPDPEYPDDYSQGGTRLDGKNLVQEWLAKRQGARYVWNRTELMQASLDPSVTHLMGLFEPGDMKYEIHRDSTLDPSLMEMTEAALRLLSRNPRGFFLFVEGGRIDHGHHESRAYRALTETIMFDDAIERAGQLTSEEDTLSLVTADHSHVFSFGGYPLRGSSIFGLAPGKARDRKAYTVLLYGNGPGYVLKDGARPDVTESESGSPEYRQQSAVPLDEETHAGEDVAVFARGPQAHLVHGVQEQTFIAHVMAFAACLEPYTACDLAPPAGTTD

Row | Binder | Kd | Kd (stem-loop)
1 | B1 | 2.9 nM | –
2 | TAAGAAATAGGGGTCGGTGTGGGTGGTTATGATTGGCTTTCTTA (ssDNA) [BG2 stem-replaced sequence 4] | – | 5.7 nM
3 | CAAGGAATAGGGGTCGGTGTGGGTGGTTATGATTGGCTTCCTTG (ssDNA, PS at nucleotides 1-7 and the last 7 at the 3' end) [thio-modified BG2] | – | 3.5 nM
4 | GATAACATAGGGGTCGGTGTGGGTGGTTATGATTGGCTGTTATC (ssDNA) [BG2 stem-replaced sequence 5] | – | 3 nM
5 | GGGGTCGGTGTGGGTGGTTATGATTGG (ssDNA) [BG2e] | 9.3 nM | –
